Measurements from the nanobody polyreactivity screen of Harvey et al. (2022).

Assay: yeast display, Sf9 membrane polyspecificity reagent, FACS + sequencing; frameworks hold sequencing errors
In short: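 Using colony PCR, genes from sorted yeast display clones were amplified, then sequenced on MiSeq at 2 × 250 and filtered by CDR length. The clones had been stained with 10% biotinylated, detergent-solubilized Sf9 membrane reagent for 1 hour at 4 °C and sorted by FACS into low and high (top ~1%) gates on anti-HA and streptavidin fluorescence. Polyreactivity labels come from the gate of origin.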

Sequence | polyreactivity (PSR sort gate)
QVQLVESGGGLVQAAGSLRLSCAASGSIFTYYAKGCYRQATRKERELVATINRIGGNTYDADSVKGRFTLSSDNAKNTVYLQMNRLKPEDNAVYYCAAKPTYRGYGYGSWGQGTQVTVSS | low polyreactivity
QVQLVESGGGLVQAAGSLRLSCAASGSTFGYNTMGWYRQAPGKERELVAGITYSGGRTYYADSVKGRFTISRDNAKNTVYLQMNSLKPADTAVYYCAALYGRGGYRNQPKSTTGMDYWGQGTQVTVSS | high polyreactivity
QVQLVESGGGLVQAAGSLRLSCAASGSTFQYYAMGWYRQAPGKERELVAAISASVDTTFYADSVKGRFTISRDNAKNTVYLQMNSLKPEDTAVYYCAKRYVDPLGSGTHGSWGQGTQVTVSS | low polyreactivity
QVQLVESGGGLVQAAGSLRLSCAASGYTSSVYAMGWYIQAHGKERELVAAISADGGSTYYADSVKGRFTISRDNAKNTVYLQMNSLKPEDTAVYYCAKYTYPYTPYSWWYDYWGQGTQVTVSS | low polyreactivity
QVQLVESGGGLVQAAGSVRLSCAASGITFTQYAMGRYRHAPGKESECVAGITFSGSSTYYADSVKGRFTISRDNSKNTVYLQMNSLKPEDTAVYYCAAESWYKYIYGYPRLFDYWGQATQVTVSS | low polyreactivity
QVQLVESGGGLVQAARTLRISCAASGYIFQYNSMRWYRPAPGKERELVAPSRYRGTSTYYADSVKGRFTISRDNAKNTDYSQMNRLKPEDTAVYYCAADSVQGRGFFGYGYWGQGTHVTVSS | high polyreactivity
QVQLVESGGGLVQAEGSLRLSCAASGIIFFHNAMGWYRQAPGKERELVATISRSGGSTYYADSVKGRFTISRDNAKNTVYLQMNSLKPEDTAVYYCAARQSIFYSWTGVEYYYWGQGTQVTVSS | low polyreactivity
QVQLVESGGGLVQAEGSLRLSCAASGSTLLYAMGWYRQAPGKERELVAAISIGDSTNYADSVKGRFTISRDNAKNTVYLQMNSLKPEDTAVYYCNADQGSNYYWGQGTQVTVSS | low polyreactivity
QVQLVESGGGLVQAGASHRLSCAASGRIFGGYAMGSDRQAPGKERELVAAISSRGGSTYYADSVKGRFTISRDNAKNTVYLLMNSLKPEETAVYYCAADGRVKGWGQGTQVTVSS | high polyreactivity
QVQLVESGGGLVQAGASLRLICDASGSIFPYNAMGWYRQAPGKERELVAVITSSGGSTYYADSVKGRFTISRDNAKNTVYLQLNSLKPEDTAVYYCAVLNHRVDSVLTRYYYWGQGTQVTVSS | low polyreactivity
QVQLVESGGGLVQAGASLRLSCAASASTFKGNAMGWYRQAPGKERELVAAINRSGTSTYYADSVKGRFTISRDNAKNSVYLQMNSLKPEDTAVYYCAKNYFGHRFDYWGQGTQVTVSS | high polyreactivity
QVQLVESGGGLVQAGASLRLSCAASGFILYRYAMGWYRQAPGKERELVAAISRRGGSTYYADSVKGRFTISRDNAKNTVYLQMNSLKPEDTAVYYCAADARYTRYDYWGQGTQVTVSS | high polyreactivity
QVQLVESGGGLVQAGASLRLSCAASGFTFTPYAMGWYRQAPGKEREMVAAISWGDGSTYYADSVKGRFTISRDNAKNTVYLQMNSLKPEDTAVYYCAADFDFYYDWIYYYWGQGTQVTVSS | high polyreactivity
QVQLVESGGGLVQAGASLRLSCAASGFTFYSYDMGWYRQAPGKERELVAVITERGSSTYYADSVKGRFTISRDNAKNTVYLQMNSLKPEDTAVYYCAAYSEYYGVYYWGQGTLVTVSS | low polyreactivity
QVQLVESGGGLVQAGASLRLSCAASGIIVTQYAMGWYRQAPGKESEIVATFSSGGARTYYADSVKGRFTISRDNAKNTVYLQMKSQKPEDTAVYYCDARRYRGYSPPYDYCGQGTQVTVSS | high polyreactivity
QVQLVESGGGLVQAGASLRLSCAASGITFVHYAMGWYRQAPWKEREFVAAITKGGGSTSYADSVKGRFTISRDNAKNTVYLQMNSLKPEDTAVDYCAKRYWGTKYGITARFDYWGQGTQVTVSS | high polyreactivity

Sequence | polyreactivity (PSR sort gate)
QVQLVESGGGLVQAGASLRLSCAASGNILRGYAMRWYRQAPGKERELVAAINRGGGSTYYADSVKVRFTISRDNAKNTVYLQMNSLKPEDTAVYYCAARYPHRGYTFDYLGQGTQVTVSS | low polyreactivity
QVQLVESGGGLVQAGASLRLSCAASGNTFIHNAMGRYRQAPGKERELVAAINWSGGRTYYADSVKGRFTISRDNAKNTVYLQMNCLKPEDTAVYYCARGTRWTYNMYYWGQGTQVTVSS | high polyreactivity
QVQLVESGGGLVQAGASLRLSCAASGRIFSFYAMGWYRQAPGKERELVAAISSGGNTYYADSVKGRFTISRDNAKNTVYLQMNSLKPEDTAVYYCATGYRKLSSRYGYWGQGTQVTVSS | high polyreactivity
QVQLVESGGGLVQAGASLRLSCAASGRISYYYTMGWYRQAPGKERELVAAISWSGGTTYYADSVKGRFTISRDNAKNTVYLQMNSLKPDDTAVYYCAAREYYTDVHGTRRYDYWGQGTQVTVSS | low polyreactivity
QVQLVESGGGLVQAGASLRLSCAASGRTFGKYAMGWYRQAPGKERELVAAITTRVVITYYADSVKGRFTISRDTAKITVYLQMNSLKPEDSADYYCAAVSIYWGQGTQVTVSS | low polyreactivity
QVQLVESGGGLVQAGASLRLSCAASGRTFPGYAMGWSRQAPGKERELVAAITYRGGSTYYADSVKGRFTISRDNAKNTVYLQMNSLKPEDTAVYYCNARHSRSRFYYWGQGTQVTVSS | high polyreactivity
QVQLVESGGGLVQAGASLRLSCAASGSILVDNAMGSYRQAPWKERELVARITGSGGSTYYADSVKGRCTISRDNAKNTVYLQMNSLKPEDTAVYYCAARRVNAGWTYGLRGNYWGQGSQVTVSS | low polyreactivity
QVQLVESGGGLVQAGASLRLSCAASGSTFPYYAMGWYRQAPGKERELVAAISGSGGTTYYADSVKGRFTISRDNAKNTVYLQMNSLKPEDTEVYYCAVDIGVGYGYYYWGQGTQVTVSS | low polyreactivity
QVQLVESGGGLVQAGASLRLSCAPSGSIFLAYAMGWYRQAPGKEREFVAALSFTDGSTYYADSVKGRFTISRDNAKNTVYLQMNSLKPEDTAVYYCNKGASPDDYDYWGQGTQVTVSS | low polyreactivity
QVQLVESGGGLVQAGASLRLSSAASGRTFRRNAKRWYRQAAGKERELVAFITGTGSTTYYADSVKGRFTISRDNAKNTVYLQMYSLKPEDTAVYYCAASSKYQDYWGQGTQVTVSS | high polyreactivity
QVQLVESGGGLVQAGASLRLSSAASGSTFKYYTMGWYRQAPGKERELVAAISFSGARTYYADSVKGRFTISRDNAKNTVYLQMNCLIPEDTAVYYCAKASSYSRRYEYWGQGTQVTVSS | high polyreactivity
QVQLVESGGGLVQAGASLSLSCAASGFTFEDYAMGWYRQAPGKERELVAAISSRGTSTYYADSVKGRFTISRDNAKNTVYLQMNSLKREDTAVYYCNIRGWYPYGYWGQGTQVTVSS | high polyreactivity
QVQLVESGGGLVQAGASRRLSCAASGSNFASYAMGWYRQAPGKERELVAAITRRGGSTDYADSVKGRFTISRDNEKYTVDLHMNLLKPEDTAVYYCPTYSYPERTGGQRTHYYWGQGTQVTVSS | high polyreactivity
QVQLVESGGGLVQAGCILRLSCAASGRTFHLNAMGWYIQAPGKEREMVAAITNSGGRTSYADSVKVRFTISRDNAKNTVYIQMNSLKPEDTAVYYFNVEVTYSSGKYYYWGQGTQVTVSS | low polyreactivity
QVQLVESGGGLVQAGCRLRLSCAASGSIIYRKAMGWYRQAPGKERQLVAAISARGGRTNYAVSVKGRFTISRDNAKNTVYLQLYSLNPEDTAVYYCNTADSWYHRSQAYDYWGQGTQVTVSS | high polyreactivity
QVQLVESGGGLVQAGCSHSLSCAASGLTFDVYTMGWYRQAPGKERELVATISQTYYADSVKGRFTISRDNAKNTVYLQMNSLKPEDTAVYYCAANGFKAQYRDIVYDYGYWGEGTQVTVSS | low polyreactivity
